Patent publication US20180036441A1 (Dana-Farber, published 2018)

Assays:
MUC1-SEA-His protein = biological target: T1, MUC1-SEA-His protein (UniProt P15941 1039-1148, limits assumed); test: SPR Biacore T200, antibody captured, antigen as analyte
T1 construct: domain: SEA; Recombinant antigen used for ELISA coating and as Biacore analyte; also called MUC-SEA-His; antigen protein; not shown: His tag
T1 sequence (looked up): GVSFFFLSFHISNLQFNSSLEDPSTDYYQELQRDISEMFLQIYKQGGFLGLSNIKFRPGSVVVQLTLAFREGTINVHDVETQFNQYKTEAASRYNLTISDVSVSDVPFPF
Method: Antibody affinity was determined using a Surface Plasmon Resonance (SPR) biosensor, Biacore T200 (GE Healthcare). Antibody was immobilized on the sensor chip through Fc capture method. Antigen protein was used as the analyte. The data of dissociation (kd) and association (ka) rate constants were obtained using Biacore T200 evaluation software. The apparent equilibrium dissociation constants (KD) were calculated from the ratio of kd over ka. For affinity ranking, twenty-five humanized antibodies plus chimericantibody were injected and captured on sensor chip individually. The antibodies were ranked based on their dissociation rates (kd).

[1] = biological target: T2, MUC1 on HCT116/MUC1 cells (UniProt P15941 24-1255, limits assumed); test: FACS titration, HCT116/MUC1 cells, antibody at 1.953 nM
T2 construct: whole, on cells; also called MUC1 overexpressed cell line
Method: (§1) To assess cell binding, 2×10⁵ HCT116/MUC1 cells per well were washed with PBS twice and incubated in 200 μl of serial dilutions of chimeric or humanized antibodies for 1 hour at room temperature. After washing 3 times with PBS, secondary antibody (2 μg/ml Alexa Flour®488 goat anti-human IgG) was added to cells and incubated for 30 minutes at room temperature. After washing with PBS, cells were analyzed by using FACSCalibur (BD Bioscience, San Jose, Calif.) and Flowjo software.

[2] = biological target: T2, MUC1 on HCT116/MUC1 cells; test: FACS titration, HCT116/MUC1 cells, antibody at 7.812 nM
Method: as §1

[3] = biological target: T2, MUC1 on HCT116/MUC1 cells; test: FACS titration, HCT116/MUC1 cells, antibody at 3.906 nM
Method: as §1

[4] = biological target: T2, MUC1 on HCT116/MUC1 cells; test: FACS titration, HCT116/MUC1 cells, antibody at 500 nM
Method: as §1

[5] = biological target: T2, MUC1 on HCT116/MUC1 cells; test: FACS titration on HCT116/MUC1 cells
Method: as §1

[6] = biological target: T2, MUC1 on HCT116/MUC1 cells; test: FACS titration, HCT116/MUC1 cells, antibody at 250 nM
Method: as §1

[7] = biological target: T2, MUC1 on HCT116/MUC1 cells; test: FACS titration, HCT116/MUC1 cells, antibody at 0.488 nM
Method: as §1

[8] = biological target: T2, MUC1 on HCT116/MUC1 cells; test: FACS titration, HCT116/MUC1 cells, antibody at 0.977 nM
Method: as §1

[9] = biological target: T2, MUC1 on HCT116/MUC1 cells; test: FACS titration, HCT116/MUC1 cells, antibody at 125 nM
Method: as §1

[10] = biological target: T2, MUC1 on HCT116/MUC1 cells; test: FACS titration, HCT116/MUC1 cells, antibody at 62.5 nM
Method: as §1

[11] = biological target: T2, MUC1 on HCT116/MUC1 cells; test: FACS titration, HCT116/MUC1 cells, antibody at 31.25 nM
Method: as §1

[12] = biological target: T2, MUC1 on HCT116/MUC1 cells; test: FACS titration, HCT116/MUC1 cells, antibody at 15.625 nM
Method: as §1

[13] = biological target: T2, MUC1 on HCT116/MUC1 cells; test: FACS titration, HCT116/MUC1 cells, antibody at 0.244 nM
Method: as §1

T2 sequence (P15941 24-1255 limits assumed): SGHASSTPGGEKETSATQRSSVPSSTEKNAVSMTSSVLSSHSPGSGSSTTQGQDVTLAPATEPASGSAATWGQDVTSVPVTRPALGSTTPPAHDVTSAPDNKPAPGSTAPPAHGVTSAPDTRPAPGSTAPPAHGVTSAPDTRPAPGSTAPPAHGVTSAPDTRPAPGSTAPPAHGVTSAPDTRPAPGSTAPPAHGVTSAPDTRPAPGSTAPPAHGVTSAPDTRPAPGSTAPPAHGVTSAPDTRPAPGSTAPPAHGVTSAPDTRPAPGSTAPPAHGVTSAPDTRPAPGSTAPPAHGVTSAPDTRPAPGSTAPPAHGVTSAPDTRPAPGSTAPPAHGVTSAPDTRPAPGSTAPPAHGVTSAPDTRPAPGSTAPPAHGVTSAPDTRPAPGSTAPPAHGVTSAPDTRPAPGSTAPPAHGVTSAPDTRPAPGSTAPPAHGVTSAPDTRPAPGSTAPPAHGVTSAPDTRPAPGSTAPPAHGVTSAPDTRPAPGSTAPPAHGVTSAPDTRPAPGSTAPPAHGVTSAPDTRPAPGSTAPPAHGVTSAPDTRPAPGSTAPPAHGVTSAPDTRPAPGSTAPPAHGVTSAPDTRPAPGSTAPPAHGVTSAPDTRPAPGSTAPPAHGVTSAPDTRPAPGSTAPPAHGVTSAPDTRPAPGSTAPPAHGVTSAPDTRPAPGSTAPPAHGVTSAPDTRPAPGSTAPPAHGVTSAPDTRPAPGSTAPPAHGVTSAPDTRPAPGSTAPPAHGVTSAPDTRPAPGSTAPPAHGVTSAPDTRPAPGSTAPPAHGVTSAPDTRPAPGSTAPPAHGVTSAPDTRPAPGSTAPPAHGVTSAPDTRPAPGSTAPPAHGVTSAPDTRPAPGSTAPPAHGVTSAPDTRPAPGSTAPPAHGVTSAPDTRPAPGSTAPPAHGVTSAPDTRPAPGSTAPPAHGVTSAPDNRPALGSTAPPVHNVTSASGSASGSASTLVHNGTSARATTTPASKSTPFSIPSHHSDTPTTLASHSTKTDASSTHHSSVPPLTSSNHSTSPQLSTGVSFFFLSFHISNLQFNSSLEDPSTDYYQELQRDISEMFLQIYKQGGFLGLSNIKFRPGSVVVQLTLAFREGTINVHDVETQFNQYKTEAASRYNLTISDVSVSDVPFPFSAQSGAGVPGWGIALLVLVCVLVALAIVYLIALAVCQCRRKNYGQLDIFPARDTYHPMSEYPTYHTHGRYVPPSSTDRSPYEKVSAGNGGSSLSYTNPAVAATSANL

Row | Binder | koff (MUC1-SEA-His protein) | geometric mean [1] | geometric mean [2] | geometric mean [3] | geometric mean [4] | EC50 [5] | geometric mean [6] | geometric mean [7] | geometric mean [8] | geometric mean [9] | geometric mean [10] | geometric mean [11] | geometric mean [12] | geometric mean [13]
1 | VH5 + VL4 (antibody, V domains shown, Humanized IgG expressed in HEK293; also called humanized antibody VH5+VL4) VH: EVQLVQSGAEVKKPGESLKISCKGSGYAFSNFWMNWVRQMPGKGLEWMGQIYPGDGDTNYNGKFKGQVTISADKSISTAYLQWSSLKASDTAMYYCARSYYRSAWFAYWGQGTLVTVSL VL: AIQLTQSPSSLSASVGDRVTITCRASQSIGTSIHWYQQKPGKAPKLLIYYASESISGVPSRFSGSGSGTDFTLTISSLQPEDFATYYCQQSNNWPLTFGGGTKVEIK | 0.0179 s⁻¹ | 5.71 | 28.6 | 15.3 | 199 | 20.6 nM | 193 | 3.52 | 4.01 | 202 | 190 | 152 | 67.1 | 2.84
2 | VH2 + VL1 (antibody, V domains shown, Humanized IgG expressed in HEK293; also called humanized antibody VH2+VL1) VH: QVQLVQSGAEVKKPGASVKVSCKASGYAFSNFWMNWVRQAPGQGLEWMGQIYPGDGDTNYNGKFKGRVTMTRDTSTSTVYMELSSLRSEDTAVYYCARSYYRSAWFAYWGQGTLVTVSS VL: EIVLTQSPDFQSVTPKEKVTITCRASQSIGTSIHWYQQKPDQSPKLLIKYASESISGVPSRFSGSGSGTDFTLTINSLEAEDAATYYCQQSNNWPLTFGQGTKVEIK | 0.00133 s⁻¹ | 4.38 | 6.37 | 5.23 | 342 | 58.6 nM | 337 | 3.27 | 3.68 | 306 | 265 | 126 | 29 | 3
3 | VH3 + VL1 (antibody, V domains shown, Humanized IgG expressed in HEK293; also called humanized antibody VH3+VL1) VH: QVQLVQSGAEVKKPGASVKVSCKASGYAFSNFWMNWVRQAPGQGLEWMGQIYPGDGDTNYNGKFKGRVTMTRDTSISTAYMELSRLRSDDTAVYYCARSYYRSAWFAYWGQGTLVTVSS VL: EIVLTQSPDFQSVTPKEKVTITCRASQSIGTSIHWYQQKPDQSPKLLIKYASESISGVPSRFSGSGSGTDFTLTINSLEAEDAATYYCQQSNNWPLTFGQGTKVEIK | 0.0015 s⁻¹ | 11.4 | 36 | 16.3 | 334 | 28.7 nM | 321 | 3.81 | 6.94 | 305 | 263 | 192 | 71.3 | 3.1
4 | VH1 + VL1 (antibody, V domains shown, Humanized IgG expressed in HEK293; also called humanized antibody VH1+VL1) VH: QVQLVQSGAEVKKPGSSVKVSCKASGYAFSNFWMNWVRQAPGQGLEWMGQIYPGDGDTNYNGKFKGRVTITADKSTSTAYMELSSLRSEDTAVYYCARSYYRSAWFAYWGQGTLVTVSS VL: EIVLTQSPDFQSVTPKEKVTITCRASQSIGTSIHWYQQKPDQSPKLLIKYASESISGVPSRFSGSGSGTDFTLTINSLEAEDAATYYCQQSNNWPLTFGQGTKVEIK | 0.0021 s⁻¹ | 5.68 | 23.1 | 9.54 | 351 | 30.3 nM | 363 | 3 | 3.17 | 332 | 290 | 185 | 68.7 | 2.72
5 | VH4 + VL1 (antibody, V domains shown, Humanized IgG expressed in HEK293; also called humanized antibody VH4+VL1) VH: QVQLVQSGAEVKKPGATVKISCKVSGYAFSNFWMNWVQQAPGKGLEWMGQIYPGDGDTNYNGKFKGRVTITADTSTDTAYMELSSLRSEDTAVYYCARSYYRSAWFAYWGQGTLVTVSR VL: EIVLTQSPDFQSVTPKEKVTITCRASQSIGTSIHWYQQKPDQSPKLLIKYASESISGVPSRFSGSGSGTDFTLTINSLEAEDAATYYCQQSNNWPLTFGQGTKVEIK | 0.00261 s⁻¹ | 2.94 | 8.87 | 4.22 | 253 | 36.6 nM | 250 | 2.54 | 2.51 | 225 | 188 | 113 | 27 | 2.54
